Experimental data reported in the nanobody polyreactivity screen of Harvey et al. (2022).

test: yeast display, Sf9 membrane polyspecificity reagent, FACS + sequencing; frameworks hold sequencing errors
Summary of the method: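 Nanobodies came from a synthetic yeast display library in Saccharomyces cerevisiae BJ5465, induced with galactose for 36–48 hours and stained for 1 hour at 4 °C with 10% biotinylated, detergent-solubilized Sf9 membrane reagent. Cells were enriched on streptavidin microbeads and then FACS-sorted, with low and high (top ~1%) gates set on anti-HA fluorescence for expression and streptavidin fluorescence for reagent binding. Each polyreactivity label reflects the gate a clone came from. Genes were amplified by colony PCR, sequenced by MiSeq 2 × 250 and filtered by CDR length.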

Sequence	polyreactivity (PSR sort gate)
QVQLVESGGGLVQAGGSLRLSCAASGSIFYVYAMGWYRQAPGKERELVASINKSGGSTYYADSVKGRFTISRDNAKNTVYLQMNSLKPEDTAVYYCAARTGWPRVGFQYPAHVGFDYWGQGTQVTVSS	low polyreactivity
QVQLVESGGGLVQAGGSLRLSCAASGSIFYVYAMGWYRQAPGKERELVASIRWIGDRTYYADSVKGRFTISRDNAKNTVYLQMNSLKPEDTAVYYCAADPRYYGYYYLTPRYYYWGQGTQVTVSS	high polyreactivity
QVQLVESGGGLVQAGGSLRLSCAASGSIFYVYAMVWYRQAPGKEREFVASIRTSGSSTYADSVKGRFTISRDNAKNTVYLQMNSLKPEDTAVYYCAAGSITVFWKRTGYRWRGYDYWGQGTQVTVSS	low polyreactivity
QVQLVESGGGLVQAGGSLRLSCAASGSIFYVYGMGWYRQAPGKERELVARITDSGGSTSYADSVKGRFTISRDNAKNTVYLQMNSLKPEDTAVYYCAAYVRPWYNYWGQGTQVTVSS	low polyreactivity
QVQLVESGGGLVQAGGSLRLSCAASGSIFYVYTMGWYRQAPGKERELVAAITVSGGRTYYADSVKGRFTISRDNAKNTVYLQLNSLKPEDTAVYYCAADTAWPYYIYWSYDYWGQGTQVTVSS	low polyreactivity
QVQLVESGGGLVQAGGSLRLSCAASGSIFYWNAMGWYRQAPGKERELVAAINYSGDSTYYADSVKGRFTISRDNAKNTVYLQMNSLKPEDTAVYYCNFDYWGQGTQVTVSS	low polyreactivity
QVQLVESGGGLVQAGGSLRLSCAASGSIFYWYALGWYRQAPGKERELVAAITYSGDRTYYADSVKGRFTISRDNAKNTVYLQMNSLKPEVTAVYYCAKDRGSGPLDYWGQGTQVTVSS	low polyreactivity
QVQLVESGGGLVQAGGSLRLSCAASGSIFYWYAMGWYRQAPGKERELVAAISRNGGNTYYADSVKGRFTISRDNAKNTVYLQMNSLKPEDTAVYYCAAQLFVRRWMDYWGQGTQVTVSS	low polyreactivity
QVQLVESGGGLVQAGGSLRLSCAASGSIFYWYAMGWYRQAPGKERELVASITTAGSTYYADSVKGRFTISRDNAKNTVYLQMNSLKPEDTAVYYCNTVPYGYHGYLYLYTYGYWGQGTQVTVSS	high polyreactivity
QVQLVESGGGLVQAGGSLRLSCAASGSIFYWYAMGWYRQAPGKERELVATITRGGSTNYADSVKGRFTISRDNAKNTVYLQMNSLKPEDTAVYYCAAQRVGHKRSTKLDYWGQGTQVTVSS	low polyreactivity
QVQLVESGGGLVQAGGSLRLSCAASGSIFYWYAMGWYRQAPGKERELVAVISSGGSTYYADSVKGRFTISRDNAKNTVYLQMNSLKPEDTAVYYCNAGPLRSGRYTYYYWGQGTQVTVSS	low polyreactivity
QVQLVESGGGLVQAGGSLRLSCAASGSIFYWYDMGWYRHAPGKEWELVAAISFNVGSTYADSVKGRFTISRDNAKNTFYLQMNSLKPEDTAVYYCNVDAYRTSYEADVYYYTWIYYWGQGTQVTVSS	low polyreactivity
QVQLVESGGGLVQAGGSLRLSCAASGSIFYYAMGWYREAPGKERELVAAISRSGGSTYYADSVKGRFTISRDNAKNTVYLQMNSLKPEDTAVYYCAKGYRGYSYGYWRQGTQVTVSS	high polyreactivity
QVQLVESGGGLVQAGGSLRLSCAASGSIFYYAMGWYRQAPWKERELVADISTGGSTHYADSVKGRFTISRDNAKNTVYLQMNSLKPEDTAVYYCAKEAWRYRLNFRYNYWGQGTQVTVSS	low polyreactivity
QVQLVESGGGLVQAGGSLRLSCAASGSIFYYAMGWYRQATGKERELVAAITTGDGTNYADSVKGRFTISRDNAKNTVYLQMNSLKPEDTAVYYCAKSTYKPYYYYFPYDYWGQGTQVTVSS	low polyreactivity
QVQLVESGGGLVQAGGSLRLSCAASGSIFYYNAMGWYRPAPGKERELVADISTSGSTYYADSVKGRFTISRDNAKNTVYLQMNSLKPEDTAVYYCNADYLPQEGEFSYPYDYWGQGTQVTVSS	low polyreactivity
QVQLVESGGGLVQAGGSLRLSCAASGSIFYYNAMGWYRQPPGKERELVAAISWSGDSTYYADSVKGRFTISRDNAKNTVYLQMNSLKPEDTAVYYCNTELVPWTEYWYDYWGQGNQVTVSS	low polyreactivity
QVQLVESGGGLVQAGGSLRLSCAASGSIFYYNARGGYRQAPGKERELVATIRTSGGSTYYADSVKGRFTISRDNAMNTVYVQLNSLKPEDTAVYYCAARDLRKLYSRYPYYYWGQGTQVTVSS	high polyreactivity
QVQLVESGGGLVQAGGSLRLSCAASGSIFYYNTMGWYRQAPGKERELVAAISWSGGSTSYADSVKGRFTISRDNAKNTVYLQMNSLKPEDTAVYYCAAKAVGLGKSWRGDDYWGQGTQVTVSS	low polyreactivity
QVQLVESGGGLVQAGGSLRLSCAASGSIFYYNTMGWYRQAPGKERELVAAISWSGGSTSYADSVKWRFTISRDNAKNTVYLQMNSLKPEDTAVYYCNVDYGVHVPPRDYWGQGTQVTVSS	low polyreactivity
QVQLVESGGGLVQAGGSLRLSCAASGSIFYYYAMGCYTQAPGKERELVAAITSGGSTYYADSVNGRFTISRDNAKNSGYLQMNSLKPEDTAVYYCNNAFPYFDDYWGQGTQVTVSS	low polyreactivity
QVQLVESGGGLVQAGGSLRLSCAASGSIFYYYAMGWDRQENGKESELVAAIDWDGGTTYYADSVMGLFTISRDNAKNTVYLQMNSLKPEDTAVFYCAGEVLYGPGGGYEYWGQGTQVTVSS	high polyreactivity

Sequence	polyreactivity (PSR sort gate)
QVQLVESGGGLVQAGGSLRLSCAASGSIFYYYAMGWYRQAPGKERELVAAITRSGSSTYYADSVKGRFTISRDNAKNTVYLQMNSLKPEDTAVYYCAAKSKRGSRYDSWGQGTQVTVSS	high polyreactivity
QVQLVESGGGLVQAGGSLRLSCAASGSIFYYYAMGWYRQAPGKERELVASISRSGGSTFYADSVKGRFTISRDNAKNTVYLQMNSLKPEDTAVYYCATGWYYSPYNYWGQGTQVTVSS	high polyreactivity
QVQLVESGGGLVQAGGSLRLSCAASGSIFYYYSMGWYRQAPGKERELVARITSGGTNYADSVKGRFTISRDNAKNTVYLQMNSLKPEDTAVYYCNADHSTWLYKRYDYWGQGTQVTVSS	low polyreactivity
QVQLVESGGGLVQAGGSLRLSCAASGSIFYYYTRGWSRQAPGKEMELVAAITSGGSTYYADSVKGRFTISRDNAKNTVYLQMNSLKPEDTAVYYCAAPIYYRLWKPGYEYWGQGTQVTVSS	high polyreactivity
QVQLVESGGGLVQAGGSLRLSCAASGSIFYYYVMGWYRQAPGKEREFGAAISWGGDSTYYADSVKGRFTISRDNAMYTVYLQMNSLKPEDTAVYYCNADYPWSVVCYAYWGQGTQVTVSS	low polyreactivity
QVQLVESGGGLVQAGGSLRLSCAASGSIIARYAMGWYRQAPGKERELVAAITWSATSTYYADSVKGRFTISRDNAKNTVYLQMNSLKREDTAVYYCNAGASYFLVISQSRRDYWGQGTQVTVSS	low polyreactivity
QVQLVESGGGLVQAGGSLRLSCAASGSIIAYNAMGWYRQAPGKERELVAAISYSGDGTYYADSVKGRFTISRDNANNTVYLQMNSLKPEDTAVYFCDTQIYPLVFYQGDWNDYWGQGTQVTVSS	low polyreactivity
QVQLVESGGGLVQAGGSLRLSCAASGSIIDVYAMGWYRQAPGKERELVAAISTSGGSTFYADSVKGRFTISRDHAKNTVYLQMNSLKPEDTAVYYCNAAKYPDQWYDEYNYWGQGTQVTVSS	low polyreactivity
QVQLVESGGGLVQAGGSLRLSCAASGSIIFRYNMGWSRQAPGKERELVAAITTGGSTNYADSVKGRFTISRDNAKNTVSLQMNSLKPEDTAVYYCNRDNRRWTRAAVRVDFYYWGQGTQVTVSS	high polyreactivity
QVQLVESGGGLVQAGGSLRLSCAASGSIIGFNGMGWYRQAPGKERELVSAISSTGGSTYYADSVKGRFTISRDNAKNTVYLQMNSLKPEDTAVYICNTDYSKTIGDGYAGFDYWGQGTQGTVSS	low polyreactivity
QVQLVESGGGLVQAGGSLRLSCAASGSIIGRNVMGWYRQAPGKERELVAVITGSGGGTYYADSVKGRFTISRDNAKNTVYLQMNSLKPEDTAVYYCAARKRGTFTYDYWGQGTQVTVSS	high polyreactivity
QVQLVESGGGLVQAGGSLRLSCAASGSIIGRYTMGWYRQAPGKERELVAAISRSGGSTYYADSVKGRFTISRDNSHNTVYLQMNSPKPEDTAVYYCAKRTYTPRVERLYSSYDYWGQGTQVTVSS	high polyreactivity
QVQLVESGGGLVQAGGSLRLSCAASGSIIGSYVMGWYRQAPGKERELVATITNGGSTYYADSVKGRFTISRDNAKNTVYLQMNSLKPEDTAVYYCAADGRGDLYVWPGIGGDYWGQGTQVTVSS	low polyreactivity
QVQLVESGGGLVQAGGSLRLSCAASGSIIGVNAMGWYRQAPGKERELVAAISSTGGSTYYADSVKGRFTISRDNAKNTVYLQMNSLKPEDTAVYYCAAVLIDPDSNLETGGIFDYWGQGTQVTVSS	low polyreactivity
QVQLVESGGGLVQAGGSLRLSCAASGSIIHNYDMGWYRPAPGTETEFVAAINWSGGNTHYADSVKGRFTISRDNAKNTFYLQMNSLKPEDTAVYYCAADSGFDTAPYDYWGQGTQVTVSS	low polyreactivity
QVQLVESGGGLVQAGGSLRLSCAASGSIIHVNAMGCYRQAPGKERELVAGISDGGSTYYADSVKGRFTISRDNAKYTVYLQMNSLKPEDTAVYYCAAESEQWYSYVLSYDWEYDYWGQGTQVTVSS	low polyreactivity
QVQLVESGGGLVQAGGSLRLSCAASGSIIIGNAMGWYRPAPGKERELVAVINGSDGTTYYADSVKGRFTISRDTAKNTVYLQMNSLKPEDTAVYYCNADFIDPSVYDYNYWGQGTQVTVSS	low polyreactivity
QVQLVESGGGLVQAGGSLRLSCAASGSIIKPYDMGWYIQAPGKERELVAAIRSSGGRTNYADSVKGRFTISRDNAKNTVYLQMNSLKPEDTAVYYCAAGYVSYWYYRYDYWGQGTQVTVSS	high polyreactivity
QVQLVESGGGLVQAGGSLRLSCAASGSIILYYAIGWYRQAPGIERELVAGIRRGGRTNYADSVKGRFTISRDNAKNTVYLQMNSLKPEDTAVYYCAKGGYWGQGSQVTVSS	high polyreactivity
QVQLVESGGGLVQAGGSLRLSCAASGSIIPGYTMGWYRQAPGKERELVAAITSSGGSTYYADSVKGRFTISRDNAKNTVYLQMNSLKPEDTAVYYCNAPFWGYRTSFSYPVVQRFDYWGQGTQVPVSS	low polyreactivity
QVQLVESGGGLVQAGGSLRLSCAASGSIIPRNAMGWYRQAPGKEMELVAAIRKSGGSTYYADSVKGRFTFCRDIAKNTVYLQMNSLKPEDTAVYYCAKPYYVPSWLSPIYNYWGQGTQVTESS	low polyreactivity
